From PMC4841237, “Structure and stability of recombinant bovine odorant-binding protein: II. Unfolding of the monomeric forms” (PeerJ, 2016) come the findings set out here.

This series concerns the molecule itself. In words: SEC; gel filtration on Superdex-75 PC 3.2/30, 20 mM Na-phosphate pH 7.8, without GdnHCl and at low GdnHCl (below 1.5-2 M), with or without 10 mM OCT; protein 0.1-0.2 mg/ml; monomer to dimer.

B1: recombinant bovine odorant-binding protein (natural protein)
chain: AQEEEAEQNLSELSGPWRTVYIGSTNPEKIQENGPFRTYFRELVFDDEKGTVDFYFSVKRDGKWKNVHVKATKQDDGTYVADYEGQNVFKIVSLSRTHLVAHNINVDKHGQTTELTELFVKLNVEDEDLEKFWKLTEDKGIDKKNVVNFLENEDHPHPE
notes: In some samples 10 mM 1-octen-3-ol (OCT) was present; also called bOBP; bOBPwt; source: E. coli BL21(DE3), plasmid pT7-7-bOBP, purified (Ni+-agarose, HisGraviTrap)
One may read the stoichiometry N as a count of units in the complex or per binding partner. As to B1, the “stoichiometry N” value was 2.
